Measured values reported in article PMC8906541, “A conserved arginine in NS5 binds genomic 3′ stem–loop RNA for primer-independent initiation of flavivirus RNA replication”.

Columns and labels:
NS5 WT [1] = target: T1, NS5 WT (Dengue virus 2, UniProt A9LIC9 2492-3391); assay: EMSA; Kd value only in figure; >100-fold excess yeast tRNA does not affect binding; conditions: protein: recombinant; tags: N-terminal His6-TEV, cleaved; stem-loop
NS5 WT [2] = target: T1, NS5 WT; assay: EMSA; Kd stated only as micromolar range; value in figure; conditions: protein: recombinant; tags: N-terminal His6-TEV, cleaved; stem-loop

B1: 3'SL (structured_RNA)
RNA: AGAUCCUGCUGUCUCCUCAGCAUCAUUCCAGGCACAGAACGCCAGAAAAUGGAAUGGUGCUGUUGAAUCAACAGGUUCU
B1: binds (NS5 WT [1]).

B2: 5'SLA (structured_RNA)
RNA: AGUUGUUAGUCUACGUGGACCGACAAAGACAGAUUCUUUGAGGAAGCUAAGCUUAACGUAGUUCUAACAG
B2: binds (NS5 WT [2]).
